Laboratory results as given in patent US20240117030A1 (Pfizer, published 2024).

What was measured:
[1] = target: recombinant cynomolgus monkey TSLP (Pfizer) (cynomolgus monkey, UniProt A0A7N9CAT7 29-159); test: cell-based or functional assay
[2] = target: T1, biotinylated human TSLP (Pfizer) (human, UniProt Q969D9 29-159, biotinylated (Avi tag by Example 2)); test: KinExA, fixed antigen format, solution affinity, mean
T1 construct: Antigen of the KinExA fixed antigen assay
Experimental: (§1) Samples were prepared in PBS containing 0.1% sodium azide and 1.0 mg/ml BSA. A fixed antigen assay method was used to determine binding affinity. […] Data analysis was performed with the KinExA Pro software version 4.3.11 (Sapidyne). […] The ‘drift correction’ option was selected when responses varied between replicate injections. Two curves were obtained in independent experiments and analyzed using the ‘n-curve analysis’ tool to obtain global best fit values for the KD and active concentration of biotinylated TSLP. The software reports each best fit value along with a 95% confidence interval).

[3] = target: T2, biotinylated cynomolgus monkey TSLP (Pfizer) (cynomolgus monkey, UniProt A0A7N9CAT7 29-159, biotinylated (Avi tag by Example 2)); test: as above
T2 construct: Antigen of the KinExA fixed antigen assay
T2 sequence (A0A7N9CAT7 entry or part of it): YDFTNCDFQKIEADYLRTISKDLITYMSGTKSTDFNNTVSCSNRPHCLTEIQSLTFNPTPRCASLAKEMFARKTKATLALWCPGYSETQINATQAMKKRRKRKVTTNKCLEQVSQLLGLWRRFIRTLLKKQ
Experimental: as §1

[4] = target: T3, recombinant human IL-12 (p35+p40) (human, UniProt P29459 23-219; P29460 23-328); test: SPR (Biacore T200, 37 C), antibody captured by anti-human Fc, cytokine injected
T3 sequence (looked up) 1: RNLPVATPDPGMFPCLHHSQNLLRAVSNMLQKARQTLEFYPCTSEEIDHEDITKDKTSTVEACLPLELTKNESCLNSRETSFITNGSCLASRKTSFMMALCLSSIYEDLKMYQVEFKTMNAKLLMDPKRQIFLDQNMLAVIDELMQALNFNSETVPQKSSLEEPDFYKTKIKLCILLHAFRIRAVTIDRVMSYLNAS
T3 sequence (looked up) 2: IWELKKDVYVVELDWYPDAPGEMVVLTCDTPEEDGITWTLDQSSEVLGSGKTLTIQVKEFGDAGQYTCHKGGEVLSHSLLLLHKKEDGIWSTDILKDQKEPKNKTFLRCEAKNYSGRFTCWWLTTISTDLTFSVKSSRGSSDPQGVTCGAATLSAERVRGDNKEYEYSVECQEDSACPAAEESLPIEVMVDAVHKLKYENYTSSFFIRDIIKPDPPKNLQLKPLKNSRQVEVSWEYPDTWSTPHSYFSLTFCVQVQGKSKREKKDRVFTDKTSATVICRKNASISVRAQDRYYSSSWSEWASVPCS
Experimental: (§2) For these analyses, kinetic assays were conducted at 37° C. at a collection rate of 10 Hz on a BIAcore™ T200 instrument (GE Healthcare).

[5] = target: T4, recombinant cynomolgus monkey IL-12 (p35+p40) (cynomolgus monkey, UniProt A0A2K5V4L8 57-253; G7P6S2 23-328); test: as above
T4 construct: also called Cyno IL-12
T4 sequence (p35): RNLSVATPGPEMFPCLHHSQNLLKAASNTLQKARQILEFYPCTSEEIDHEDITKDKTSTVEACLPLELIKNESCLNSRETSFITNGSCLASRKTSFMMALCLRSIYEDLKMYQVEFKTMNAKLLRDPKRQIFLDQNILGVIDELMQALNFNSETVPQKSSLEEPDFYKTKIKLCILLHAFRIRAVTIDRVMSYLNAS
T4 sequence (p40): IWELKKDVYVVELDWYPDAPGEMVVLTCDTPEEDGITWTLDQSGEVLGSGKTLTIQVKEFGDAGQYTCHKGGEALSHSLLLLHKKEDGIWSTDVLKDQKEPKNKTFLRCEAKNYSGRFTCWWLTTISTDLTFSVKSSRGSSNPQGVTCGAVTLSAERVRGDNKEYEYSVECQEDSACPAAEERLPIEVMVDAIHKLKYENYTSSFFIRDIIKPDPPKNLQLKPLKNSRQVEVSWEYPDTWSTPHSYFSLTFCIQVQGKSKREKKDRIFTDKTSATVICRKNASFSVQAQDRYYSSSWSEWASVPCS
Experimental: as §2

[6] = target: T5, recombinant human IL-23 (p19+p40) (human, UniProt Q9NPF7 20-189; P29460 23-328); test: as above
T5 sequence (looked up) 1: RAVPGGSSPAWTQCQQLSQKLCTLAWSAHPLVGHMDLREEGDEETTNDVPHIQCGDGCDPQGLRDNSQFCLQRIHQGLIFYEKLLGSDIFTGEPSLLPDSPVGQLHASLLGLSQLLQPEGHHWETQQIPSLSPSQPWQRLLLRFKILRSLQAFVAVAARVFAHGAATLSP
T5 sequence (looked up) 2: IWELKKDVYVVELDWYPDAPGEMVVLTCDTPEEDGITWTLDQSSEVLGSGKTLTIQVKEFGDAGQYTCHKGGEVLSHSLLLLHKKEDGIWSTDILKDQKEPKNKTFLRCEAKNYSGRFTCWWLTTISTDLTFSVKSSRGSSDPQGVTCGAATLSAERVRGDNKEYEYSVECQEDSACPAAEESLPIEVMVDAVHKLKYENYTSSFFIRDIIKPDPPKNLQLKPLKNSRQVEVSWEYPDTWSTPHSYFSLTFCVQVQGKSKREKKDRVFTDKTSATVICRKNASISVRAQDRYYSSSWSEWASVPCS
Experimental: as §2

[7] = target: T6, recombinant cynomolgus monkey IL-23 (p19+p40) (cynomolgus monkey, UniProt H6WS56 20-189; G7P6S2 23-328); test: as above
T6 construct: also called Cyno IL-23
T6 sequence (p19): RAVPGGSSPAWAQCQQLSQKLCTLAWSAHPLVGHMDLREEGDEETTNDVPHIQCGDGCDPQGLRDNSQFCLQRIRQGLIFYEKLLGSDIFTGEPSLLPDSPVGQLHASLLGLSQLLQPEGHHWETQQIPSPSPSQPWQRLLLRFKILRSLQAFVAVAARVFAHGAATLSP
T6 sequence (p40): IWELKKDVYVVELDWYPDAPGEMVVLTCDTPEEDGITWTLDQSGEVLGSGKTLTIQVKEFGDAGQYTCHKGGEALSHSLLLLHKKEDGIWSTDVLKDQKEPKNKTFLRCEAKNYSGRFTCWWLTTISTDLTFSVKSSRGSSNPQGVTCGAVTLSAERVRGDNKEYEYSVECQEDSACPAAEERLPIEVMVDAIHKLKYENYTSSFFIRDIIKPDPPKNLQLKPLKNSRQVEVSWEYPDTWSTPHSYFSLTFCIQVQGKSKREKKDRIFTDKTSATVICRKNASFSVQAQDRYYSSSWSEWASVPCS
Experimental: as §2

Sequence of recombinant cynomolgus monkey TSLP (Pfizer) (A0A7N9CAT7 entry or part of it): as the sequence (A0A7N9CAT7 entry or part of it) above

B1: IL413TSLP-1024 (antibody)
heavy: not shown
light 1: SYVLTQPPSVSVAPGQTARITCGGNNLGSKSVHWYQQKPGQAPVLVVYDDKDRPSWIPERFSGSNSGNTATLTISRGEAGDEADYYCQVWDSKSDHVVFGGGTKLTVLGQPKAAPSVTLFPPSSEELQANKATLVCLISDFYPGAVTVAWKADSSPVKAGVETTTPSKQSNNKYAASSYLSLTPEQWKSHRSYSCQVTHEGSTVEKTVAPTECS
chain 1: DIQMTQSPSSLSASVGDRVTITCKASESVDHFGWSLVHWYQQKPGKAPKLLIYRASNLESGVPSRFSGSGSGTDFTLTISSLQPEDFATYYCQQSNEDPWTFGGGTKVEIKRTVAAPSVFIFPPSDEQLKSGTASVVCLLNNFYPREAKVQWKVDNALQSGNSQESVTEQDSKDSTYSLSSTLTLSKADYEKHKVYACEVTHQGLSSPVTKSFNRGECGGGGSEVTLRESGPALVKPTQTLTLTCTFSGFSLSNFGEGLSWIRQPPGKGLEWLAHIYWDDDKRYNPSLKSRLTISKDTSRNQVVLTMTNMDPVDTATYYCARRETVFYWYFDVWGQGTTVTVSSASTKGPSVFPLAPSSKSTSGGTAALGCLVKDYFPEPVTVSWNSGALTSGVHTFPAVLQSSGLYSLSSVVTVPSSSLGTQTYICNVNHKPSNTKVDKKVEPKSCEKTHTCPPCPAPEAAGAPSVFLFPPKPKDTLMISRTPEVTCVVVDVSHEDPEVKFNWYVDGVEVHNAKTKPREEQYNSTYRVVSVLTVLHQDWLNGKEYKCKVSNKALPAPIEKTISKAKGQPREPQVYTLPPSREEMTKNQVSLTCEVKGFYPSDIAVEWESNGQPENNYKTTPPVLDSDGSFFLYSKLTVDKSRWQQGNVFSCSVLHEALHSHYTQKSLSLSPGK
light 2: DIQMTQSPSSLSASVGDRVTITCRASQSVDEEGDSYMNWYQQKPGKAPKLLIYAASNLESGVPSRFSGSGSGTDFTLTISSLQPEDFATYYCQQSNKDPPTFGGGTKVEIKRTVAAPSVFIFPPSDEQLKSGTASVVCLLNNFYPREAKVQWKVDNALQSGNSQESVTEQDSKDSTYSLSSTLTLSKADYEKHKVYACEVTHQGLSSPVTKSFNRGEC
chain 2: EVQLVESGGGLVQPGGSLRLSCAASGFTFSSYAMSWVRQAPGKGLEWVASISSGDTTYYPDSVKGRFTISRDNAKNSLYLQMNSLRAEDTAVYYCARNEGYYFGLTLWGQGTLVTVSSASTKGPSVFPLAPSSKSTSGGTAALGCLVKDYFPEPVTVSWNSGALTSGVHTFPAVLQSSGLYSLSSVVTVPSSSLGTQTYICNVNHKPSNTKVDKKVEPKSC
notes: RR-EE, LS; monovalent for TSLP
In the case of B1, the “IC50, TARC production bioassay, Human Whole Blood (median)” value [1] is reported as 0.0327 nM, the “IC50, TARC production bioassay, Peripheral Blood Monocytes (median)” value [1] is reported as 0.03 nM and the Kd [2] is reported as 0.00303 nM. For the same binder, the Kd [3] was 0.00631 nM.

B2: p40-0003 (antibody, human IgG1, kappa, V domains shown)
VH: EVQLVQSGAEVKKPGESLKISCKGSGYSFTTYWLGWVRQMPGKGLDWIGIMSPVDSDIRYSPSFQGQVTMSVDKSITTAYLQWNSLKASDTAMYYCARRRPGQGYFDFWGQGTLVTVSS
VL: DIQMTQSPSSLSASVGDRVTITCRASQGISSWLAWYQQKPEKAPKSLIYAASSLQSGVPSRFSGSGSGTDFTLTISSLQPEDFATYYCQQYNIYPYTFGQGTKLEIKR
notes: also called p40 mAb; ustekinumab (C230) variable regions on human IgG1 effector-null
Binder B2 has a Kd [4] of 0.156 nM, a Kd [5] of 0.368 nM and a Kd [6] of 0.16 nM. The Kd [7] was 0.317 nM.
